Numbering of substitutions follows the chain as printed. Numbers in names are those of the source.
B1: C5A (XPA23) VH Y101A (antibody, V domains shown)
VH: EVQLLESGGGLVQPGGSLRLSCAASGFTFSKYFMFWVRQAPGKGLEWVSVISPSGGMTRYADSVKGRFTISRDNSKNTLYLQMNSLRAEDTAVYYCARVGAGGNSDYWGQGTLVTVSS
VL: DIQMTQSPSSVSASVGDRLTIICRASQDINRWLAWYQQTPGNAPKLLIHSATSLQSGVPSRFSGSGSGTDFTLTINSLQPEDFATYYCQQADSFPLTFGGGTKVEIK
B2: C5A (XPA23) VH Y101V (antibody, V domains shown)
VH: B1 VH with A101V
VL: B1 VL
B3: C5A (XPA23) VH Y101I (antibody, V domains shown)
VH: B1 VH with A101I
VL: B1 VL
B4: C5A (XPA23) VH Y101L (antibody, V domains shown)
VH: B1 VH with A101L
VL: B1 VL
B5: C5A (XPA23) VH Y101F (antibody, V domains shown)
VH: B1 VH with A101F
VL: B1 VL
B6: C5A (XPA23) VH Y101W (antibody, V domains shown)
VH: B1 VH with A101W
VL: B1 VL
B7: C5A (XPA23) VH Y101P (antibody, V domains shown)
VH: B1 VH with A101P
VL: B1 VL
B8: C5A (XPA23) VH G103A (antibody, V domains shown)
VH: B1 VH with A101Y, G103A
VL: B1 VL
B9: C5A (XPA23) VH G103V (antibody, V domains shown)
VH: B1 VH with A101Y, G103V
VL: B1 VL
B10: C5A (XPA23) VH N104G (antibody, V domains shown)
VH: B1 VH with A101Y, N104G
VL: B1 VL
B11: C5A (XPA23) VH N104A (antibody, V domains shown)
VH: B1 VH with A101Y, N104A
VL: B1 VL
B12: C5A (XPA23) VH N104V (antibody, V domains shown)
VH: B1 VH with A101Y, N104V
VL: B1 VL
B13: C5A (XPA23) VH N104L (antibody, V domains shown)
VH: B1 VH with A101Y, N104L
VL: B1 VL
B14: C5A (XPA23) VH S105G (antibody, V domains shown)
VH: B1 VH with A101Y, S105G
VL: B1 VL
B15: C5A (XPA23) VH S105A (antibody, V domains shown)
VH: B1 VH with A101Y, S105A
VL: B1 VL
B16: C5A (XPA23) VH S105V (antibody, V domains shown)
VH: B1 VH with A101Y, S105V
VL: B1 VL
B17: C5A (XPA23) VH S105I (antibody, V domains shown)
VH: B1 VH with A101Y, S105I
VL: B1 VL
B18: C5A (XPA23) VH S105F (antibody, V domains shown)
VH: B1 VH with A101Y, S105F
VL: B1 VL
B19: C5A (XPA23) VH S105P (antibody, V domains shown)
VH: B1 VH with A101Y, S105P
VL: B1 VL
B20: C5A (XPA23) VH D106G (antibody, V domains shown)
VH: B1 VH with A101Y, D106G
VL: B1 VL
B21: C5A (XPA23) VH Y107G (antibody, V domains shown)
VH: B1 VH with A101Y, Y107G
VL: B1 VL
B22: C5A (XPA23) VH Y107A (antibody, V domains shown)
VH: B1 VH with A101Y, Y107A
VL: B1 VL
B23: C5A (XPA23) VH Y107V (antibody, V domains shown)
VH: B1 VH with A101Y, Y107V
VL: B1 VL
B24: C5A (XPA23) VH Y107I (antibody, V domains shown)
VH: B1 VH with A101Y, Y107I
VL: B1 VL
B25: C5A (XPA23) VH Y107L (antibody, V domains shown)
VH: B1 VH with A101Y, Y107L
VL: B1 VL
B26: C5A (XPA23) VH Y107F (antibody, V domains shown)
VH: B1 VH with A101Y, Y107F
VL: B1 VL
B27: C5A (XPA23) VH Y107W (antibody, V domains shown)
VH: B1 VH with A101Y, Y107W
VL: B1 VL
B28: C5A (XPA23) VH Y107P (antibody, V domains shown)
VH: B1 VH with A101Y, Y107P
VL: B1 VL
B29: C5A (XPA23) light chain variable region S53T (antibody, V domains shown)
VH: B1 VH with A101Y
VL: B1 VL with S53T
B30: C5A (XPA23) light chain variable region S53V (antibody, V domains shown)
VH: B1 VH with A101Y
VL: B1 VL with S53V
B31: C5A (XPA23) light chain variable region S53I (antibody, V domains shown)
VH: B1 VH with A101Y
VL: B1 VL with S53I
B32: C5A (XPA23) light chain variable region S53L (antibody, V domains shown)
VH: B1 VH with A101Y
VL: B1 VL with S53L
B33: C5A (XPA23) light chain variable region S53A (antibody, V domains shown)
VH: B1 VH with A101Y
VL: B1 VL with S53A
B34: C5A (XPA23) light chain variable region S53G (antibody, V domains shown)
VH: B1 VH with A101Y
VL: B1 VL with S53G
B35: C5A (XPA23) light chain variable region S53P (antibody, V domains shown)
VH: B1 VH with A101Y
VL: B1 VL with S53P
B36: C5A (XPA23) light chain variable region A91T (antibody, V domains shown)
VH: B1 VH with A101Y
VL: B1 VL with A91T
B37: C5A (XPA23) light chain variable region A91V (antibody, V domains shown)
VH: B1 VH with A101Y
VL: B1 VL with A91V
B38: C5A (XPA23) light chain variable region A91L (antibody, V domains shown)
VH: B1 VH with A101Y
VL: B1 VL with A91L
B39: C5A (XPA23) light chain variable region D92T (antibody, V domains shown)
VH: B1 VH with A101Y
VL: B1 VL with D92T
B40: C5A (XPA23) light chain variable region D92I (antibody, V domains shown)
VH: B1 VH with A101Y
VL: B1 VL with D92I

What follows are binders tested against binding partner of C5A (XPA23) (assay: Biacore).

Row | Binder | fold difference in affinity vs original | fold affinity vs original
1 | B1 | 0.04 fold | –
2 | B2 | 0.09 fold | –
3 | B3 | 0.83 fold | –
4 | B4 | 1.91 fold | –
5 | B5 | – | 0.85 fold
6 | B6 | – | 0.81 fold
7 | B7 | 0.04 fold | –
8 | B8 | 0.03 fold | –
9 | B9 | 2.56 fold | –
10 | B10 | 1.21 fold | –
11 | B11 | 1.61 fold | –
12 | B12 | 1.27 fold | –
13 | B13 | 1.19 fold | –
14 | B14 | 0.12 fold | –
15 | B15 | 0.84 fold | –
16 | B16 | 0.08 fold | –
17 | B17 | 0.07 fold | –
18 | B18 | – | 1.25 fold
19 | B19 | 1.41 fold | –
20 | B20 | 0.03 fold | –
21 | B21 | 0.1 fold | –
22 | B22 | 0.83 fold | –
23 | B23 | 0.93 fold | –
24 | B24 | 0.96 fold | –
25 | B25 | 0.86 fold | –
26 | B26 | – | 0.9 fold
27 | B27 | – | 0.89 fold
28 | B28 | 0.04 fold | –

These binders were tested against binding partner (antigen) of C5A (XPA23) (assay: Biacore, K-off, fold vs original).

Row | Binder | fold difference in affinity vs original
29 | B1 | 0.04 fold
30 | B2 | 0.09 fold
31 | B3 | 0.83 fold
32 | B4 | 1.91 fold
33 | B5 | 0.85 fold
34 | B6 | 0.81 fold
35 | B7 | 0.04 fold
36 | B8 | 0.03 fold
37 | B9 | 2.56 fold
38 | B10 | 1.21 fold
39 | B11 | 1.61 fold
40 | B12 | 1.27 fold
41 | B13 | 1.19 fold
42 | B14 | 0.12 fold
43 | B15 | 0.84 fold
44 | B16 | 0.08 fold
45 | B17 | 0.07 fold
46 | B18 | 1.25 fold
47 | B19 | 1.41 fold
48 | B20 | 0.03 fold
49 | B21 | 0.1 fold
50 | B22 | 0.83 fold
51 | B23 | 0.93 fold
52 | B24 | 0.96 fold
53 | B25 | 0.86 fold
54 | B26 | 0.9 fold
55 | B27 | 0.89 fold
56 | B28 | 0.04 fold

What follows are binders tested against binding partner of C5A (XPA23) (assay: Biacore, mutant vs original C5A (XPA23)).

Row | Binder | fold difference in affinity in comparison to original
57 | B29 | 0.95 fold
58 | B30 | 1.42 fold
59 | B31 | 1.42 fold
60 | B32 | 0.99 fold
61 | B33 | 1.07 fold
62 | B34 | 1.03 fold
63 | B35 | 4.92 fold
64 | B36 | 0.67 fold
65 | B37 | 0.51 fold
66 | B38 | 0.39 fold
67 | B39 | 0.34 fold
68 | B40 | 0.33 fold

Reference: US20110118447A1
